From US9771395B2, “Enhanced influenza hemagglutinin binders” (UNIVERSITY OF WASHINGTON, priority 2014, dated 2017) come the findings set out here.

Assay [1] relates to H1N1 A/California/07/2009 (CA09) virus. Nature of the assay: Pre-exposure administration and lethal influenza challenge in BALB/c mice. Format: in vivo. The protocol:
(§1) All animal experiments used in this study were approved by the University of Washington Institutional Animal Care and Use Committee. […] Two to forty-eight hours later, the mice were anesthetized by isoflurane and challenged intranasally with 10 MLD50 (fifty percent mouse lethal dose) of either A/California/07/09 (H1N1) (CA09) or A/PR/8/34 (H1N1) (PR8). In a therapeutic setting, mice received the protein binder 0 (2 hours post-infection), 1, 2, 3, or 4 days post infection. The mice were monitored daily for weight loss and survival until 14 days post-infection. Animals that lost more than 30% of their initial body weight were euthanized in accordance with our animal protocol. The SCID (NOD SCID gamma, strain NOD.Cg-Prkdcscid Il2rgtm1Wjl/SzJ) mice and the MyD88−/−(strain B6.129P2(SJL)-Myd88tm1.1Defr/J) mice were purchased from Jackson Laboratory.

Assay [2] deals with CA09 virus. Nature of the assay: Pre-exposure administration and CA09 challenge in MyD88-/- mice. It counts as in vivo. As to conditions: 6.0 mg/kg IN 2 hrs before CA09. Here is the method: as §1
The subject of assay [3] is CA09 virus. Nature of the assay: Pre-exposure administration and CA09 challenge in SCID mice. As to conditions: 6.0 mg/kg IN 2 hrs before CA09. It counts as in vivo, NOD SCID gamma (SCID) mice. Here is the method: as §1
Setting [4] is: 0.01 mg/kg IN two hours prior to lethal CA09 challenge.
[5] abbreviates: 0.1 mg/kg IN two hours prior to lethal CA09 challenge.
[6] abbreviates: 1.0 mg/kg IN two hours prior to lethal CA09 challenge.

B1: HB36.6: HA stem binding protein, variant of HB36.5 with nine substitutions (SEQ ID NO: 3); FLAG-tagged in the studies (protein)
chain: SNAMDGQQLNRLLLENIGAWDPFGLGKDAYTYQAAEVLKAVYETNRAFDLAMRIHWIYNFAFKRRIPFARTQKLARRLLELKQAASSPLP
modifications: FLAG tag; (1)..(5) optionally absent; (86)..(90) optionally absent
notes: FLAG-tagged in the studies
In the case of B1, in assay [1] (setting [4]), the “mice recovered and survived” value amounted to 20%. Moreover, the “survived longer than controls” value in assay [1] (setting [4]) lay within 2 to 3 days. The weight loss result is recorded as “exhibited weight loss” in assay [1] (setting [4]); “little” in assay [1] (setting [5]); “no” in assay [1] (setting [6]); “moderate to low” in assay [1] (single IN dose 6.0 mg/kg up to 48 hours before 10 MLD50 CA09); “minimal weight loss” in the assay on CA09 virus [2]; “minimal weight loss” with CA09 virus [3]. The survival is on record as 100% in assay [1] (setting [5]); 100% in assay [1] (setting [6]); 100% in assay [1] (single IN dose 6.0 mg/kg at 2, 24 or 48 hours before 10 MLD50 CA09). Also, the “protection from mortality and morbidity” value in assay [1] (lethal CA09 challenge 24 hours after the 4th dose (3.0 mg/kg IN), data not shown) came to 100%. For the same molecule, in assay [1] (same dose (6.0 mg/kg) delivered intravenously (IV), data not shown), the protection result was “no protection”. Also, the “survival (protected mice)” value worked out at 90% with CA09 virus [2] and 100% in the assay on CA09 virus [3].
